Columns and labels:
CD4^+ or CD8^+ T cells = test: proliferation of CFSE-labeled T cells against A20 cells decorated with 4-1BBL; assay type: cell-based, C57B/6 (H2-K^b) mice; settings: 4:1 ratio, 4 days co-culture, flow cytometry
Protocol: CD4^+ and CD8^+ T cells were FACS-sorted from spleens and lymph nodes of naïve C57B/6 (H2-K^b) mice and were stained with carboxyfluorescein diacetate succinimidylester (CFSE). Briefly, cells were washed with PBS, incubated in 4 ml of 2.5 μM CFSE/1×10^6 cells for 7 minutes at room temperature. Cells were then incubated in two volumes of FBS for 1 min, and washed 2 times with PBS. A20 B lymphoma cells (H2-K^d) were washed in PBS and biotinylated using freshly prepared EZ-Link Sulfo-NHS-LC-Biotin in PBS (1 ml solution per 50×10^6 cells) for 30 min at room temperature. After washing with PBS, cells were irradiated at 10000 cGy. Biotinylated and irradiated A20 cells were incubated with CSA-4-1BBL (100 ng/1×10^6cells) or control protein CSA (38 ng/1×10^6 cells) in 5 ml tubes for 30 minutes in a cold room. After washing the cells extensively, some of the cells were stained with fluorochrome conjugated antibodies against 4-1BBL and streptavidin to detect the decoration, or with fluorochrome conjugated streptavidin to detect biotinylation. […]
Proliferation of T cells were determined using flow cytometry after staining cells with fluorochrome conjugated anti-CD4 or anti-CD8 antibodies.

LLC cells = test: ex vivo co-display of fusion proteins on biotinylated LLC cells (flow cytometry); assay type: cell-based; settings: 15 μM biotin, 100 ng/protein/10^6 cells
Protocol: (§1) Engineering of cell surfaces. LLC or A20 tumor cells are washed with ice-cold PBS and incubated at 2×10^7 cells/ml in PBS, pH 8.0, containing 5-15 μM EZ-Link™ Sulfo-NHS-LC-Biotin (Pierce) at room temperature for 30 min. Cells are washed extensively and incubated at 1×10^6 cell/ml with 100 ng/purified immune co-stimulatory-streptavidin fusion protein for 45 min at 4° C. After extensive washing with PBS, cells are processed for flow cytometric analysis to assess the cells engineered with the immune co-stimulatory fusion proteins. Such cells also are used for functional studies in vitro. Cells are irradiated at 100 Gy prior to being used in in vitro studies.
One million LLC cells were biotinylated using 15 μM of EZ-Link™ Sulfo-NHS-LC-Biotin derivative from Pierce Biotechnology, Inc. (Rockford, Ill.) in PBS at room temperature for 20-30 minutes. Biotin was then removed by centrifugation, cells were washed once, transferred into a clean second tube, washed 1-2 more times, and then contacted with CD80-CSA and 4-1BBL-CSA fusion proteins at 100 ng/protein/10^6 cells in PBS for 30-45 minutes on ice. Cells were then washed extensively and used for staining with saturating concentrations of various fluorochrome-conjugated antibodies to CD80 and 4-1BBL in PBS by incubation on ice for 30-45 minutes. Cells were then washed extensively with FACS medium and used for flow cytometric analysis. […] FIG. 8.

A20 cells [1] = test: ex vivo co-display of fusion proteins on biotinylated A20 cells (flow cytometry); assay type: cell-based; settings: 5 μM biotin, 100 ng/protein/10^6 cells
Protocol: as §1
A20 cells were biotinylated (5 μM) and then contacted with CD80-CSA and 4-1BBL-CSA fusion proteins at 100 ng/protein/10^6 cells, following procedures similar to those set forth above.

[2] = test system: peripheral blood lymphocytes from healthy volunteers; test: MLTR assay with tumor cells engineered with CD80-CSA; assay type: cell-based, human; settings: HEC-1-A endometrial cancer cell line engineered with CD80-CSA
A20 cells [3] = test: effect of timing of CD80-CSA administration after biotinylation of A20 tumors; assay type: in vivo, BALB/c mice
Protocol: A similar protocol was followed to evaluate the effect of the timing of the CD80-CSA administration subsequent to biotinylation. 1×10^6 A20 cells were injected subcutaneously into the right back flank of naïve BALB/c mice. Tumor growth was monitored and measured using calipers three times a week. When the tumor size reached 7-9 mm average diameter, 300 μl of 5 mM biotin solution (EZ-Link Sulfo-NHS-LC-Biotin in PBS) was injected into the tumors. At 2, 4, 8 or 16 hours after biotin injection, biotinylation was assessed as described above and 50 μg of CD80-SA was administered by intratumoral injection. (Some animals were left untreated as negative controls.) Animals were euthanized 16 hours after CD80-SA injection. Tumors were processed into single cell suspensions, and fusion protein levels were detected by an antibody against CD80 using flow cytometry. The results (FIG. 16) show a greater percentage of biotinylated cells decorated when the fusion protein was administered 16 hours after biotin administration, with 62% of biotinylated cells being decorated, compared to 49%, 31% and 10% at 8, 4 and 2 hours post-biotin administration, respectively.

splenocytes = test: in vivo kinetics of protein display on ex vivo engineered splenocytes; settings: 15 μM biotin, 100 ng/1×10^6 cells, injected intravenously into syngeneic animals
Protocol: The kinetics of persistence of the exogenous proteins on the cell surface was determined in vivo. Splenocytes were modified with biotin (15 μM), engineered with an CD80-CSA fusion protein (100 ng/1×10^6 cells), labeled with CFSE, and injected intravenously into syngeneic animals. Splenocytes and LN cells were harvested various days post-injection and analyzed for the presence of fusion protein on CFSE positive cells. CD80-CSA persisted on the surface of splenocytes with a t1/2 of >10 days. FIG. 9.

A20 B lymphoma cells [4] = test: quantification of CD80-CSA molecules displayed per cell (Quantum-27 MESF kit); assay type: cell-based; settings: 5 μM biotin, 100 ng protein
Protocol: Cells were stained with phycoerythrin (PE) conjugated anti-human CD80 antibody. The Quantum-27 MESF kit from Bangs Laboratories was used to estimate the number of CD80-CSA molecules per cell. Molecules of equivalent soluble fluorochrome (MESF) for the samples were calculated according to the calibration curve constructed by five MESF beads with varying MESF values (0, 727, 2737, 10110, 41738) using Cell Quest analysis program (Becton Dickinson Biosciences). The data for each sample was converted into MESF values. FIG. 10.

A20 B lymphoma cells [5] = test: in vivo engineering of solid A20 tumors (intratumoral biotin, then CD80-CSA); design: species or system Balb/c mice
Protocol: One million live A20 B lymphoma cells were injected subcutaneously to the right flank of naïve syngeneic Balb/c mice. When the tumor size reached 7-9 mm in diameter, 300 μL of 1 mM EZ-Link Sulfo-NHS-LC-Biotin in PBS was injected into the tumor, followed 24 hrs later by intratumoral injection of 40 μg of CD80-CSA fusion protein in 150 μL PBS. Tumor cells were harvested and analyzed 24 hrs after protein injection. Biotin levels were detected by streptavidin-APC and fusion protein levels were detected by an antibody against CD80. Cells from untreated tumors and biotinylated tumors were used as negative controls for biotin and CD80, respectively.

Molecule | proliferative response of T cells against decorated A20 cells (CD4^+ or CD8^+ T cells) | display on the surface of tumor cells (LLC cells) | display on the surface of tumor cells (A20 cells [1]) | proliferative response of peripheral blood lymphocytes [2] | biotinylated cells being decorated (A20 cells [3]; 50 μg intratumorally 2 hours after 5 mM biotin) | biotinylated cells being decorated (A20 cells [3]; 50 μg intratumorally 4 hours after 5 mM biotin) | biotinylated cells being decorated (A20 cells [3]; 50 μg intratumorally 8 hours after 5 mM biotin) | biotinylated cells being decorated (A20 cells [3]; 50 μg intratumorally 16 hours after 5 mM biotin) | t1/2 of persistence on the surface of splenocytes in vivo (splenocytes) | average number of molecules per cell (A20 B lymphoma cells [4]) | tumor cells positive for CD80 (A20 B lymphoma cells [5]; 40 μg intratumorally 24 hrs after biotin, 24 hrs after protein injection) | biotin positive cells displaying protein (A20 B lymphoma cells [5]; I mM biotin followed by 40 μg 24 hrs later)
4-1BBL-CSA: CSA-murine 4-1 BBL fusion protein (SEQ ID NOs 5 and 6) (protein) FMQLKGGSDLNMKLCILLAVVAFVGLSLGRSHHHHHHITGTWYNQLGSTFIVTAGADGALTGTYESAVGNAESRYVLTGRYDSAPATDGSGTALGWTVAWKNNYRNAHSATTWSGQYVGGAEARINTQWLLTSGATEANAWKSTLVGHDTFTKVKPSAASSEFRTEPRPALTITTSPNLGTRENNADQVTPVSHIGCPNTTQQGSPVFAKLLAKNQASLCNTTLNWHSQDGAGSSYLSQGLRYEEDKKELVVDSPGLYYVFLELKLSPTFTNTGHKVQGWVSLVLQAKPQVDDFDNLALTVELFPCSMENKLVDRSWSQLLLLKAGHRLSVGLRAYLHGAQDAYRDWELSYPNTTSFGLFLVKPDNPWE | 52.6% | co-displayed on the surface of tumor cells at comparable levels | co-displayed on the surface of tumor cells at comparable levels | – | – | – | – | – | – | – | – | –
CD80-CSA: chimeric protein comprising the extracellular domain of human B7.1 (CD80) and core streptavidin (SEQ ID NO:4) (protein) SPVQLKGGSDLNMKLCILLAVVAFVGLSLGRSIHVTKEVKEVATLSCGHNVSVEELAQTRIYWQKEKKMVLTMMSGDMNIWPEYKNRTIFDITNNLSIVILALRPSDEGTYECVVLKYEKDAFKREHLAEVTLSVKADFPTPSISDFEIPTSNIRRIICSTSGGFPEPHLSWLENGEELNAINTTVSQDPETELYAVSSKLDFNMTTNHSFMCLIKYGHLRVNQTFNWNTTKQERSHHHHHHITGTWYNQLGSTFIVTAGADGALTGTYESAVGNAESRYVLTGRYDSAPATDGSGTALGWTVAWKNNYRNAHSATTWSGQYVGGAEARINTQWLLTSGATEANAWKSTLVGHDTFTKVKPSAASSRILQISSTVAAARV | – | co-displayed on the surface of tumor cells at comparable levels | co-displayed on the surface of tumor cells at comparable levels | potent proliferative responses | 10% | 31% | 49% | 62% | > 240 h | 118,000 molecules per cell | 81% | > 80%

Reference: patent publication US20070172504A1, “In vivo cell surface engineering” (University of Lousville Research Foundation, Inc., priority 2005, published 2007)
